Laboratory results taken from patent US20090226404A1 (published 2009).

Key:
[1] = target: T1, gp100 (209-217 analogue) peptide on HLA-A*02:01 (human); test: killing
T1 peptide: IMDQVPFSV

[2] = target: T2, gp100 peptide on HLA-A*02:01 (human); test: cytolytic efficiency of retrovirally transduced T cells, peptide titration; value taken from earlier work (ref. 24); full-length, on cells
T2 peptide: YLEPGPVTA

[3] = target: T2, gp100 peptide on HLA-A*02:01; test: cytolytic efficiency of the parental 296 CTL clone, peptide titration; value cited from ref. 24; T cell clone or line
[4] = target: T2, gp100 peptide on HLA-A*02:01; test: 51Cr release with peptide titrated on T2 cells; RNA-electroporated CD8+ T cells 24 h after electroporation; ED50 is the peptide concentration at 50% of maximum lysis; lower end of the range; full-length, on cells
Method: (§1) CD8⁺ T cells were electroporated with EGFP RNA (Neg) or RNA coding for the TCR α and β chain, and were used as effector cells in cytotoxicity assays 24 h after electroporation. T2 cells loaded with different concentrations of gp100₂₈₀₋₂₈₈ peptide (as indicated) were used as target cells, and % lysis was calculated. The target to effector cell ratio was 1:15. The peptide concentration corresponding to 50% of the maximum lysis (ED₅₀), used to measure the cytolytic efficiency, is indicated by the dotted line. Average values of triplicates±SD are shown. Data of one (out of five) representative T cell donor is shown.
(§2) From previous published work, we know that the cytolytic efficiency of the parental 296 CTL clone was preserved following retroviral transduction of TCR genes into T cells. To test the avidity of the TCR RNA-transfected T cells, we performed a cytotoxicity assay (24 h after electroporation) in which we titrated the gp100₂₈₀₋₂₈₈ peptide on T2 target cells (FIG. 6). The peptide concentration corresponding to 50% of the maximum lysis (i.e. ED₅₀) of the TCR RNA-transfected T cells ranged from 300-1000 pM in three independent experiments (FIG. 6). This is in the same range as the cytolytic efficiency of the retrovirally transduced T cells (ED₅₀=300 pM). Both approximate the cytolytic efficiency of the parental 296 CTL clone, which has an ED₅₀ of 50 pM [24]. […]

[5] = target: T2, gp100 peptide on HLA-A*02:01; test: 51Cr release with peptide titrated on T2 cells; RNA-electroporated CD8+ T cells 24 h after electroporation; upper end of the range; full-length, on cells
Method: as §1, §2

B1: gp100-specific 296 TCR (TCR, V domains shown)
Valpha: GENVEQHPSTLSVQEGDSAVIKCTYSDSASNYFPWYKQELGKGPQLIIDIRSNVGEKKDQRIAVTLNKTAKHFSLHITETQPEDSAVYFCAASTSGGTSYGKLTFGQGTILTVHP
Vbeta: EAQVTQNPRYLITVTGKKLTVTCSQNMNHEYMSWYRQDPGLGLRQIYYSMNVEVTDKGDVPEGYKVSRKEKRNFPLILESPSPNQTSLYFCASSLGSSYEQYFGPGTRLTVT
In the case of B1, the binding result [1] is reported as “no recognition”, the EC50 of peptide [2] is reported as 0.3 nM and the EC50 of peptide [3] is reported as 0.05 nM. For the same binder, the EC50 of peptide [4] was ≥ 0.3 nM and the EC50 of peptide [5] was ≤ 1 nM.
